From PMC5696030
One block for each substance: values may come before it.

Key:
Assay in all cases: AUC
[1] = biological target: native human NFU1 (human) (UniProt Q9UMS0)
[2] = biological target: Gly189Arg NFU1 (human) (UniProt Q9UMS0)
[3] = biological target: Gly189Lys NFU1 (human) (UniProt Q9UMS0)
[4] = biological target: Gly189Ala NFU1 (human) (UniProt Q9UMS0)

percent dimer [1]: 52%
percent dimer with 1 mM TCEP [1]: 44%
percent monomer [1]: 45%
percent monomer with 1 mM TCEP [1]: 44%
Substance: native human NFU1 (from UniProt Q9UMS0 10-254) (natural protein)

percent dimer [2]: 4%
percent dimer with 1 mM TCEP [2]: 4%
percent monomer [2]: 95%
percent monomer with 1 mM TCEP [2]: 94%
stoichiometry N [2]: 2
Substance: Gly189Arg NFU1 (from UniProt Q9UMS0 10-254) (natural protein)

percent dimer [3]: 5%
percent dimer with 1 mM TCEP [3]: 6%
percent monomer with 1 mM TCEP [3]: 89%
stoichiometry N [3]: 2
Substance: Gly189Lys NFU1 (from UniProt Q9UMS0 10-254) (natural protein)

percent dimer [4]: 3%
percent dimer with 1 mM TCEP [4]: 3%
percent monomer [4]: 95%
percent monomer with 1 mM TCEP [4]: 95%
stoichiometry N [4]: 2
Substance: Gly189Ala NFU1 (from UniProt Q9UMS0 10-254) (natural protein)
